Where a chain is given by its changes, count along the chain named. Values belong to the binder of their own block, whether it stands above or below them.
Target: T1, human TIGIT-Fc (human, UniProt Q495A1 22-141, limits assumed)
T1 construct: not shown: Fc; not described
T1 sequence (looked up): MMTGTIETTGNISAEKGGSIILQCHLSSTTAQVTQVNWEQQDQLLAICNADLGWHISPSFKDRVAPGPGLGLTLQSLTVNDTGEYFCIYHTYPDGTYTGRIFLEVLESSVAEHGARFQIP
Test: CD155 competition ELISA, single point; further: test concentration or dose not given here
Method: TIGIT/CD155 inhibition of VHH-Fcs were assessed using an ELISA assay (Table 10B). Briefly, human TIGIT-Fc was coated on a plate & then incubated with VHH-Fcs and human CD155-biotin. Bound CD155-biotin was detected using a streptavidin-HRP conjugate visualized with TMB. Strong inhibitors from the single point screen were titrated to determine EC50 (Table 10C).

- OD (450 nm): 0.878 OD
B1: TIGIT-SC147 (Fc fusion)
VHH: EVQLVESGGGLVQPGGSLRLSCAASGTITSAVFMGWFRQAPGKEREFVAAVIWRGGSLKSYADSVKGRFTISADNSKNTAYLQMNSLKPEDTAVYYCAKLAVAGNYYYYGMDVWGQGTLVTVSS
notes: VHH-Fc

- OD (450 nm): 0.633 OD
B2: TIGIT-SC141 (Fc fusion)
VHH: EVQLVESGGGLVQPGGSLRLSCAASGNAFSSSVMGWFRQAPGKEREFVAGIWRSGSLKAYADSVKGRFTISADNSKNTAYLQMNSLRPEDTAVYYCARAYVGMTTVTFDHWGQGTLVTVSS
notes: VHH-Fc

- OD (450 nm): 0.708 OD
B3: TIGIT-SC140 (Fc fusion)
VHH: EVQLVESGGGLVQPGGSLRLSCAASGNTFSGGFTFDRSWMGWFRQAPGKEREWVASVLRGGYTWYADSVKGRFTISADNSKNTAYLQMNSLKPEDTAVYYCAGDRYYDFWSGPNSGDYWGQGTLVTVSS
notes: VHH-Fc

- OD (450 nm): 0.593 OD
B4: TIGIT-SC92 (Fc fusion)
VHH: EVQLVESGGGLVQPGGSLRLSCAASGSTIENYAMGWFRQAPGKEREFVAAIDWSGGSTYYADSVKGRFTISADNSKNTAYLQMNSLKPEDTAVYYCARWRSIWSGYDDYYYMDVWGQGTLVTVSS
notes: VHH-Fc

- OD (450 nm): 0.484 OD
B5: TIGIT-SC91 (Fc fusion)
VHH: B4 VHH with S27F, I29F, E30S, D52N, S54N, G55S, G56R
notes: VHH-Fc

- OD (450 nm): 0.307 OD
B6: TIGIT-SC93 (Fc fusion)
VHH: B4 VHH with G26S, S27R, I29V, E30S, N31S, Y32H, D52S, G56V, S57T
notes: VHH-Fc

- OD (450 nm): 0.591 OD
B7: TIGIT-SC179 (Fc fusion)
VHH: EVQLVESGGGLVQPGGSLRLSCAASGFTFSPSWMGWFRQAPGKEREWVASVLRGGYTWYADSVKGRFTISADNSKNTAYLQMNSLKPEDTAVYYCASEVASGETDYWGQGTLVTVSS
notes: VHH-Fc

- OD (450 nm): 0.328 OD
B8: TIGIT-SC163 (Fc fusion)
VHH: B7 VHH with S30D, P31R, S97T, E98D, V99K, A100R, S101G, G102P, E103H, T104P
notes: VHH-Fc

- OD (450 nm): 0.328 OD
B9: TIGIT-SC166 (Fc fusion)
VHH: B7 VHH with S30D, P31R, S97R, V99G, A100S, S101G, G102Y, E103A, T104S
notes: VHH-Fc

- OD (450 nm): 0.306 OD
B10: TIGIT-SC168 (Fc fusion)
VHH: EVQLVESGGGLVQPGGSLRLSCAASGFTFDRSWMGWFRQAPGKEREWVASVLRGGYAWYADSVKGRFTISADNSKNTAYLQMSSLKPEDTAVYYCAREGSGYASDYWGQGTLVTVSS
notes: VHH-Fc

- OD (450 nm): 0.692 OD
B11: TIGIT-SC100 (Fc fusion)
VHH: EVQLVESGGGLVQPGGSLRLSCAASGRTLSDRAMGWFRQAPGKEREFVAAITDNGGSTYYADSVKGRFTISADNSKNTAYLQMNSLKPEDTAVYYCARWYSSSGDYYYMDVWGQGTLVTVSS
notes: VHH-Fc

- OD (450 nm): 0.394 OD
B12: TIGIT-SC101 (Fc fusion)
VHH: B11 VHH with L29F, D31S, R32Y, T52D, D53W, N54S, G55D
notes: VHH-Fc

- OD (450 nm): 0.432 OD
B13: TIGIT-SC145 (Fc fusion)
VHH: EVQLVESGGGLVQPGGSLRLSCAASGNTFSGGFTLGYYVMGWFRQAPGKEREFVAAISRSGTLKAYADGVKGRFTISADNSKNTAYLQMNSLKPEDTAVYYCARVEAYGDPLGYWGQGTLVTVSS
notes: VHH-Fc

- OD (450 nm): 0.51 OD
B14: TIGIT-SC139 (Fc fusion)
VHH: EVQLVESGGGLVQPGGSLRLSCAASGFTLENNMMGWFRQAPGKEREFVAAISRSGTLKAYADSVKGRFTISADNSKNTAYLRMNSLKPEDTAVYYCAGLTSGGAFSYYWGQGTLVTVSS
notes: VHH-Fc

- OD (450 nm): 0.701 OD
B15: TIGIT-SC104 (Fc fusion)
VHH: EVQLVESGGGLVQPGGSLRLSCAASGFTFSTYTMGWFRQAPGKEREFVAAISPSGNTYYADSVKGRFTISADNSKNTAYLQMNSLKPEDTAVYYCARWGGITFGGVYPLDYWGQGTLVTVSS
notes: VHH-Fc

- OD (450 nm): 0.626 OD
B16: TIGIT-SC143 (Fc fusion)
VHH: EVQLVESGGGLVQPGGSLRLSCAASGFTLGYYVMGWFRQAPGKEREFVAAISASGTLRAYADSVEGRFTISADNSKNTAYLQMNSLKPEDTAVYYCARAELGYSYGSVDGYWGQGTLVTVSS
notes: VHH-Fc

- OD (450 nm): 0.306 OD
B17: TIGIT-SC137 (Fc fusion)
VHH: EVQLVESGGGLVQPGGSLRLSCAASGFTLENNMMGWFRQAPGKEREFVAAISRSGTLKAYADSVKGRFTISADNSKNTAYLQMNSLKPEDTAVYYCSLVSGPRWYWGQGTLVTVSS
notes: VHH-Fc

- OD (450 nm): 0.686 OD
B18: TIGIT-SC144 (Fc fusion)
VHH: EVQLVESGGGLVQPGGSLRLSCAASGFTLENNMMGWFRQAPGKEREFVAAISPSGTLRAYADSVKGRFTISADNSKNTAYLQMNSLKPEDTAVYYCAGIHDSGVPLGNWGQGTLVTVSS
notes: VHH-Fc

- OD (450 nm): 0.423 OD
B19: TIGIT-SC146 (Fc fusion)
VHH: EVQLVESGGGLVQPGGGLRLSCAASGFTLENNMMGWFRQAPGKEREFVAAISASGTLRAYADSVKGRFTISADNSKNTAYLQMNSLKPEDTAVYYCAKGGQAGPMAFYFDYWGQGTLVTVSS
notes: VHH-Fc

- OD (450 nm): 0.959 OD
B20: TIGIT-SC105 (Fc fusion)
VHH: EVQLVESGGGLVQPGGSLRLSCAASGFAFSRYGMGWFRQAPGKERELVATIGWSGSSTFYADSVKGRFTISADNSKNTAYLQMNSLKPEDTAVYYCARDGGPYYYGLDVWGQGTLVTVSS
notes: VHH-Fc

- OD (450 nm): 0.571 OD
B21: TIGIT-SC136 (Fc fusion)
VHH: EVQLVESGGGLVQPGGSLRLSCAASGFTLENNMMGWFRQAPGKEREFVAAISRSGTLKAYADSVKGRFTISADNSKNTAYLQMNSLKPEDTAVYYCARGGELTTFYFGYWGQGTLVTVSS
notes: VHH-Fc

- OD (450 nm): 0.445 OD
B22: TIGIT-SC150 (Fc fusion)
VHH: EVQLVESGGGLVQPGGSLRLSCAASGFTLENNMMGWFRQAPGKEREFVAAISRSGTLKAYADSVKGRFTISADNSKNTAYLQVNSLKPEDTAVYYCVRVRGYSGYDCDYWGQGTLVTVSS
notes: VHH-Fc

- OD (450 nm): 0.677 OD
B23: TIGIT-SC96 (Fc fusion)
VHH: EVQLVESGGGLVQPGGSLRLSCAASGMTTIGPMGWFRQAPGKEREFVAAINWSGSSTVYADSVKGRFTISADNSKNTAYLQMNSLKPEDTAVYYCVTYSAYDFRNAWGQGTLVTVSS
notes: VHH-Fc

- OD (450 nm): 0.472 OD
B24: TIGIT-SC158 (Fc fusion)
VHH: EVQLVESGGGLVQPGGSLRLSCAASGFTFSPSWMGWFRQAPGKEREWVASVLRGGYTWYADSVKGRFTISADNSKNTAYLQMNSLKPEDTAVYYCAREGRSSSPWFDPWGQGTLVTVSS
notes: VHH-Fc

- OD (450 nm): 0.465 OD
B25: TIGIT-SC154 (Fc fusion)
VHH: EVQLVESGGGLVQPGGSLRLSCAASGFAFSSDWMGWFRQAPGKEREWVASVLRGGYTWYADSVKGRFTISADNSKNTAYLQMNSLKPEDTAVYYCAGDYRGFEMAFDPWGQGTLVTVSS
notes: VHH-Fc

- OD (450 nm): 0.545 OD
B26: TIGIT-SC202 (Fc fusion)
VHH: EVQLVESGGGLVQPGGSLRLSCAASGFTFSPSWMGWFRQAPGKEREWVASVLRGGYTWYADSVKGRFTISADNSKNTAYLQMNSLKPEDTAVYYCTTDGGYSGIVGFAWGQGTLVTVSS
notes: VHH-Fc

- OD (450 nm): 0.749 OD
B27: TIGIT-SC159 (Fc fusion)
VHH: B24 VHH with S30D, P31R
notes: VHH-Fc

- OD (450 nm): 0.449 OD
B28: TIGIT-SC155 (Fc fusion)
VHH: B25 VHH with F27N, A28T, S31G, D32G, W33F
notes: VHH-Fc

- OD (450 nm): 0.467 OD
B29: TIGIT-SC160 (Fc fusion)
VHH: B24 VHH with F27N, P31G, S32G, W33F
notes: VHH-Fc

- OD (450 nm): 0.513 OD
B30: TIGIT-SC94 (Fc fusion)
VHH: EVQLVESGGGLVQPGGSLRLSCAASGSSFSAYAMGWFRQAPGKEREFVSLINWSSGKTIYADSVKGRFTISADNSKNTAYLQMNSLKPEDTAVYYCARVRIFNHVHRPSYYFDYWGQGTLVTVSS
notes: VHH-Fc

- OD (450 nm): 0.451 OD
B31: TIGIT-SC161 (Fc fusion)
VHH: EVQLVESGGGLVQPGGSLRLSCAASGFTFSPSWMGWFRQAPGKEREWVASVLRGGYTWYADSVKGRFTISADNSKNTAYLQMNSLKPEDTAVYYCTTDRAIGVRPLFDHWGQGTLVTVSS
notes: VHH-Fc

- OD (450 nm): 0.845 OD
B32: TIGIT-SC134 (Fc fusion)
VHH: EVQLVESGGGLVQPGGSLRLSCAASGFTLENNMMGWFRQAPGKEREFVAAISASGTLRAYADSVKGRFTISADNSKNTAYLQMNSLKPEDTAVYYCARWYRVNNWSPGYYYYMDVWGQGTLVTVSS
notes: VHH-Fc

- OD (450 nm): 0.69 OD
B33: TIGIT-SC142 (Fc fusion)
VHH: EVQLVESGGGLVQPGGSLRLSCAASGFSFDRWAMGWFRQAPGKEREFVAAIGWSGNLKAYADSVKGRFTISADNSKNTAYLQMNSLKPEDTAVYYCASGDGYSMDYFDPWGQGTLVTVSS
notes: VHH-Fc

- OD (450 nm): 0.284 OD
B34: TIGIT-SC133 (Fc fusion)
VHH: EVQLVESGGGLVQPGGSLRLSCAASGFTLENNMMGWFRQAPGKEREFVAAISASGTLRAYADSVKGRFTISADNSKNTAYLQMNSLKPEDTAVYYCACGRVSGAFIYFDYWGQGTLVTVSS
notes: VHH-Fc

- OD (450 nm): 0.52 OD
B35: TIGIT-SC148 (Fc fusion)
VHH: EVQLVESGGGLVQPGGSLRLSCAASGDIGSINAMGWFRQAPGKEREFVAGIWRSGNLKAYADSVKGRFTISADNSKNTAYLQMSSLKPEDTAVYYCARGNIVVVPAAFVIWFDPWGQGTLVTVSS
notes: VHH-Fc

- OD (450 nm): 0.311 OD
B36: TIGIT-SC102 (Fc fusion)
VHH: EVQLVESGGGLVQPGGSLRLSCAASGSTFSKHHAMGWFRQAPGKEREFVAAIRWSGGNTYYADSVKGRFTISADNSKNTAYLQMNSLKPEDTAVYYCARWYSSSGDYYYMDVWGQGTLVTVSS
notes: VHH-Fc
